Each block holds one substance with its values, some of them ahead of it.
Key:
[1] = molecular target: Rix1 (Chaetomium thermophilum (endogenous in mycelium)); assay: cryo-EM structure; pre-60S particles from the Flag eluates of PT-Rsa4 E117D with Nop7-Flag, Rix1-Flag or Flag-Las1
[2] = molecular target: Rix1 (Chaetomium thermophilum (endogenous in mycelium)); assay: cryo-EM structure; isolated rixosome from the PTF-Las1 eluate; Rix1 complex and Las1-Grc3 processed individually, whole rixosome at low resolution
[3] = molecular target: polynucleotide kinase Grc3 (Chaetomium thermophilum (endogenous in mycelium)); assay: as above
[4] = molecular target: Ipi3 (Chaetomium thermophilum (endogenous in mycelium)); assay: cryo-EM structure; pre-60S particles from the Flag eluates of PT-Rsa4 E117D with Nop7-Flag, Rix1-Flag or Flag-Las1
[5] = molecular target: Ipi3 (Chaetomium thermophilum (endogenous in mycelium)); assay: cryo-EM structure; isolated rixosome from the PTF-Las1 eluate; Rix1 complex and Las1-Grc3 processed individually, whole rixosome at low resolution
[6] = molecular target: wild‐type ct PTF‐Las1 (Chaetomium thermophilum); assay: as above

stoichiometry N [1]: 2 copies | stoichiometry N [2]: 2 copies
Substance: Rix1 (natural protein)

stoichiometry N [3]: 2 copies
Substance: polynucleotide kinase Grc3 (enzyme)

stoichiometry N [4]: 2 copies | stoichiometry N [5]: 2 copies
Substance: Ipi3 (natural protein)

stoichiometry N [6]: 2 copies
Substance: wild‐type ct PTF‐Las1 (enzyme)
